What was measured:
[1] = molecular target: prefusion RSVF sc9-10 DS-Cav1-A149C;Y458C;S46G;E92D;S215P;K465Q thermostabilized variant (DS2) (respiratory syncytial virus) (UniProt P03420); assay: SPR
[2] = molecular target: RSVF-multi-4 K29L; assay: SPR

motavizumab Fab, sequence (VH): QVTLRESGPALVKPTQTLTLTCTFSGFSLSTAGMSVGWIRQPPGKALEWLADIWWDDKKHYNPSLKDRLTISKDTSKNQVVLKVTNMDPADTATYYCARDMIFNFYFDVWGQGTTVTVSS
motavizumab Fab, sequence (VL): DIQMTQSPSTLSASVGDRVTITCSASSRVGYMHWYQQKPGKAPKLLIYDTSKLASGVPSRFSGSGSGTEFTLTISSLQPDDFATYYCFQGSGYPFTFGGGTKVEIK

Row | Substance | Kd [1] [nM] | Kd [2] [nM]
1 | RSV90 Fab | 0.9 | > 1000
2 | motavizumab Fab | 0.015 | 
